How the values were obtained:
[1] = target: T1, human PTHrP (1-34) (human); assay: ELISA, plate coated with human PTHrP (1-34)
T1 construct: Synthetic peptide (Peninsula; Peptide Research Institute), coated on ELISA plates at 1 ug/ml; added at 1 ng/ml final in the cAMP assay; also called parathyroid hormone related peptide (1-34)
Description: An ELISA plate for determining antigen-binding ability was prepared as follows. Each well of a 96-well ELISA plate (Maxisorp, NUNC) was coated with 100 μl of a coating buffer containing 1 μg/ml of human PTHrP (1-34) and then blocked with 200 μl of a dilution buffer. Subsequently, each well was added with each of the serial dilutions of the COS-7 cell culture supernatant in which each of the hybrid antibodies and humanized antibodies was expressed, or added with each of the serial dilutions of each of the hybrid antibodies and humanized antibodies in a purified form. The plate was incubated at room temperature and washed with PBS-Tween 20. Subsequently, each well was added with 100 μl of alkaline phosphatase-conjugated goat anti-human IgG antibody (TAGO). The plate was incubated at room temperature and washed with PBS-Tween 20. Subsequently, each well was added with 1 mg/ml of a substrate solution (“Sigma 104”, p-nitrophenylphosphoric acid, SIGMA). The solution was measured on its absorbance at 405 nm using Microplate Reader (Bio Rad).

[2] = target: T1, human PTHrP (1-34); assay: solid phase RIA of hybridoma culture supernatant
Excerpt: The hybridomas thus obtained was suspended into RPMI-1640 medium containing 15% FCS supplemented with OPI-supplement (Sigma), followed by unification of the hybridomas by limiting dilution method.

binding result [1]	binding result [2]	Binder
binds		humanized #23-57-137-1 antibody having L-chain version "s" (antibody, V domains shown, Humanized H-chain version a with human Cgamma1; human lambda C-region; COS-7 expressed; also called hMBC1HcDNA/pCOS1 and hMBC1Lsλ/pCOS1) VH: QVQLVESGGGVVQPGRSLRLSCAASGFTFSSYGMSWVRQAPGKGLEWVATISSGGSYTYYPDSVKGRFTISRDNSKNTLYLQMNSLRAEDTAVYYCARQTTMTYFAYWGQGTLVTVSS VL: QLVLTQSPSASASLGASVKLTCTLSSQHSTYTIEWYQQQPEKGPKYVMDLKQDGSHSTGDGIPDRFSGSSSGAERYLTISSLQSEDEADYICGVGDTIKEQFVYVFGGGTKLTVLG
binds		human FR1/mouse FR2,3,4 hybrid antibody, L-chain hmmMBC1L(λ) (antibody, V domains shown, H-chain from hMBC1HcDNA/pCOS1 (humanized version a, human Cgamma1); human lambda C-region; also called FR1/FR2 hybrid antibody) VH: QVQLVESGGGVVQPGRSLRLSCAASGFTFSSYGMSWVRQAPGKGLEWVATISSGGSYTYYPDSVKGRFTISRDNSKNTLYLQMNSLRAEDTAVYYCARQTTMTYFAYWGQGTLVTVSS VL: QLVLTQSPSASASLGASVKLTCTLSSQHSTYTIEWYQQQPLKPPKYVMDLKQDGSHSTGDGIPDRFSGSSSGADRYLSISNIQPEDEAMYICGVGDTIKEQFVYVFGGGTKVTVL
binds		humanized #23-57-137-1 antibody having L-chain version "q" (antibody, V domains shown, Humanized H-chain version a with human Cgamma1; human lambda C-region; COS-7 expressed (also CHO); also called hMBC1HcDNA/pCOS1 and hMBC1Lqλ/pCOS1) VH: QVQLVESGGGVVQPGRSLRLSCAASGFTFSSYGMSWVRQAPGKGLEWVATISSGGSYTYYPDSVKGRFTISRDNSKNTLYLQMNSLRAEDTAVYYCARQTTMTYFAYWGQGTLVTVSS VL: QLVLTQSPSASASLGASVKLTCTLSSQHSTYTIEWYQQQPEKGPKYLMDLKQDGSHSTGDGIPDRFSGSSSGAERYLTISSLQSEDEADYICGVGDTIKEQFVYVFGGGTKLTVLG
binds		mouse FR1,2/human FR3,4 hybrid antibody, L-chain m/hMBC1Laλ (antibody, V domains shown, H-chain from hMBC1HcDNA/pCOS1 (humanized version a, human Cgamma1); human lambda C-region) VH: QVQLVESGGGVVQPGRSLRLSCAASGFTFSSYGMSWVRQAPGKGLEWVATISSGGSYTYYPDSVKGRFTISRDNSKNTLYLQMNSLRAEDTAVYYCARQTTMTYFAYWGQGTLVTVSS VL: QLVLTQSSSASFSLGASAKLTCTLSSQHSTYTIEWYQQQPLKPPKYVMDLKQDGSHSTGDGIPDRFSGSSSGAERYLTISSLQSEDEADYYCGVGDTIKEQFVYVFGGGTKLTVL
binds		humanized #23-57-137-1 antibody having L-chain version "r" (antibody, V domains shown, Humanized H-chain version a with human Cgamma1; human lambda C-region; COS-7 expressed (also CHO); also called hMBC1HcDNA/pCOS1 and hMBC1Lrλ/pCOS1) VH: QVQLVESGGGVVQPGRSLRLSCAASGFTFSSYGMSWVRQAPGKGLEWVATISSGGSYTYYPDSVKGRFTISRDNSKNTLYLQMNSLRAEDTAVYYCARQTTMTYFAYWGQGTLVTVSS VL: QLVLTQSPSASASLGASVKLTCTLSSQHSTYTIEWYQQQPEKGPRYLMDLKQDGSHSTGDGIPDRFSGSSSGAERYLTISSLQSEDEADYICGVGDTIKEQFVYVFGGGTKLTVLG
binds		antibody having both a humanized H-chain version "a" and a chimeric L-chain (antibody, V domains shown, Human Cgamma1 H-chain C-region) VH: QVQLVESGGGVVQPGRSLRLSCAASGFTFSSYGMSWVRQAPGKGLEWVATISSGGSYTYYPDSVKGRFTISRDNSKNTLYLQMNSLRAEDTAVYYCARQTTMTYFAYWGQGTLVTVSS VL: QLVLTQSSSASFSLGASAKLTCTLSSQHSTYTIEWYQQQPLKPPKYVMDLKQDGSHSTGDGIPDRFSGSSSGADRYLSISNIQPEDEAMYICGVGDTIKEQFVYVFGGGTKVTVLG
binds		humanized #23-57-137-1 antibody having L-chain version "j" (antibody, V domains shown, Humanized H-chain version a with human Cgamma1; human lambda C-region; COS-7 expressed; also called hMBC1HcDNA/pCOS1 and hMBC1Ljλ/pCOS1) VH: QVQLVESGGGVVQPGRSLRLSCAASGFTFSSYGMSWVRQAPGKGLEWVATISSGGSYTYYPDSVKGRFTISRDNSKNTLYLQMNSLRAEDTAVYYCARQTTMTYFAYWGQGTLVTVSS VL: QLVLTQSPSASASLGASVKLTCTLSSQHSTYTIEWYQQQPEKGPKYLMDLKQDGSHSTGDGIPDRFSGSSSGAERYLTISSLQSEDEADYYCGVGDTIKEQFVYVFGGGTKLTVLG
binds		humanized #23-57-137-1 antibody having L-chain version "t" (antibody, V domains shown, Humanized H-chain version a with human Cgamma1; human lambda C-region; COS-7 expressed; also called hMBC1HcDNA/pCOS1 and hMBC1Ltλ/pCOS1) VH: QVQLVESGGGVVQPGRSLRLSCAASGFTFSSYGMSWVRQAPGKGLEWVATISSGGSYTYYPDSVKGRFTISRDNSKNTLYLQMNSLRAEDTAVYYCARQTTMTYFAYWGQGTLVTVSS VL: QLVLTQSPSASASLGASVKLTCTLSSQHSTYTIEWYQQQPEKGPRYVMDLKQDGSHSTGDGIPDRFSGSSSGAERYLTISSLQSEDEADYICGVGDTIKEQFVYVFGGGTKLTVLG
binds		humanized #23-57-137-1 antibody having L-chain version "m" (antibody, V domains shown, Humanized H-chain version a with human Cgamma1; human lambda C-region; COS-7 expressed; also called hMBC1HcDNA/pCOS1 and hMBC1Lmλ/pCOS1) VH: QVQLVESGGGVVQPGRSLRLSCAASGFTFSSYGMSWVRQAPGKGLEWVATISSGGSYTYYPDSVKGRFTISRDNSKNTLYLQMNSLRAEDTAVYYCARQTTMTYFAYWGQGTLVTVSS VL: QLVLTQSPSASASLGASVKLTCTLSSQHSTYTIEWYQQQPEKGPRYLMDLKQDGSHSTGDGIPDRFSGSSSGAERYLTISSLQSEDEADYYCGVGDTIKEQFVYVFGGGTKLTVLG
binds		humanized #23-57-137-1 antibody having L-chain version "l" (antibody, V domains shown, Humanized H-chain version a with human Cgamma1; human lambda C-region; COS-7 expressed; also called hMBC1HcDNA/pCOS1 and hMBC1Llλ/pCOS1) VH: QVQLVESGGGVVQPGRSLRLSCAASGFTFSSYGMSWVRQAPGKGLEWVATISSGGSYTYYPDSVKGRFTISRDNSKNTLYLQMNSLRAEDTAVYYCARQTTMTYFAYWGQGTLVTVSS VL: QLVLTQSPSASASLGASVKLTCTLSSQHSTYTIEWYQQQPEKGPKYVMDLKQDGSHSTGDGIPDRFSGSSSGAERYLTISSLQSEDEADYYCGVGDTIKEQFVYVFGGGTKLTVLG
binds		humanized #23-57-137-1 antibody having L-chain version "o" (antibody, V domains shown, Humanized H-chain version a with human Cgamma1; human lambda C-region; COS-7 expressed; also called hMBC1HcDNA/pCOS1 and hMBC1Loλ/pCOS1) VH: QVQLVESGGGVVQPGRSLRLSCAASGFTFSSYGMSWVRQAPGKGLEWVATISSGGSYTYYPDSVKGRFTISRDNSKNTLYLQMNSLRAEDTAVYYCARQTTMTYFAYWGQGTLVTVSS VL: QLVLTQSPSASASLGASVKLTCTLSSQHSTYTIEWYQQQPEKGPRYVMDLKQDGSHSTGDGIPDRFSGSSSGAERYLTISSLQSEDEADYYCGVGDTIKEQFVYVFGGGTKLTVLG
	binds	mouse monoclonal antibody #23-57-137-1 against human PTHrP (1-34) (antibody, V domains shown, Mouse antibody from hybridoma culture supernatant; mouse lambda L-chain; H-chain cloned with an MHC-G1 primer) VH: EVQLVESGGDLVKPGGSLKLSCAASGFTFSSYGMSWIRQTPDKRLEWVATISSGGSYTYYPDSVKGRFTISRDNAKNTLYLQMSSLKSEDTAMFYCARQTTMTYFAYWGQGTLVTVSA VL: QLVLTQSSSASFSLGASAKLTCTLSSQHSTYTIEWYQQQPLKPPKYVMDLKQDGSHSTGDGIPDRFSGSSSGADRYLSISNIQPEDEAMYICGVGDTIKEQFVYVFGGGTKVTVLG
binds		chimeric #23-57-137-1 antibody with L-chain kappa chain C-region (antibody, V domains shown, Mouse V-regions joined to human H-chain C-region Cgamma1 and human kappa C-region (from plasmid HEF-PM1k-gk); expressed in COS-7 cells; also called chimeric antibody; MBC1HcDNA/pCOS1 and MBC1L(κ)/neo) VH: EVQLVESGGDLVKPGGSLKLSCAASGFTFSSYGMSWIRQTPDKRLEWVATISSGGSYTYYPDSVKGRFTISRDNAKNTLYLQMSSLKSEDTAMFYCARQTTMTYFAYWGQGTLVTVSA VL: QLVLTQSSSASFSLGASAKLTCTLSSQHSTYTIEWYQQQPLKPPKYVMDLKQDGSHSTGDGIPDRFSGSSSGADRYLSISNIQPEDEAMYICGVGDTIKEQFVYVFGGGTKVTVLG
binds		chimeric #23-57-137-1 antibody with L-chain lambda chain C-region (antibody, V domains shown, Mouse V-regions joined to human H-chain C-region Cgamma1 and human lambda C-region (isotype Mcg+Ke+Oz-, EMBL X57819); expressed in COS-7 cells; also called chimeric antibody; MBC1HcDNA/pCOS1 and MBC1L(λ)/neo) VH: EVQLVESGGDLVKPGGSLKLSCAASGFTFSSYGMSWIRQTPDKRLEWVATISSGGSYTYYPDSVKGRFTISRDNAKNTLYLQMSSLKSEDTAMFYCARQTTMTYFAYWGQGTLVTVSA VL: QLVLTQSSSASFSLGASAKLTCTLSSQHSTYTIEWYQQQPLKPPKYVMDLKQDGSHSTGDGIPDRFSGSSSGADRYLSISNIQPEDEAMYICGVGDTIKEQFVYVFGGGTKVTVLG

— patent publication US20030049211A1 (published 2003)
